Results: patent US20230192857A1 (published 2023)
Where two headings read alike, the source gives them in different places. Non-standard residues stand in square brackets, D forms with d. No end group written: not given here. pY = N[C@@H](Cc1ccc(OP(=O)(O)O)cc1)C(=O)O

How the values were obtained:
[1] = target: T1, hCIS-SH2-BC complex (recombinant trimeric complex of human GST-CIS-SH2 construct with Elongins B and C) (UniProt Q9NSE2 66-258; Q15370 1-118; Q15369 17-112); experiment: ITC
[2] = target: T1, hCIS-SH2-BC complex (recombinant …); experiment: ITC; remark: listed apart in the source

B1: phosphopeptide corresponding to Tyr392 within the IL-2Rβ (printed 'IL-2R13') cytoplasmic domain (peptide)
peptide: LSGEDDA[pY]CTFPSRDD
Binder B1 has a Kd [1] of 1800 nM and a Kd [2] of 1800 nM.

B2: phosphopeptide corresponding to Tyr355 within the IL-2Rβ (printed 'IL-2R13') cytoplasmic domain (peptide)
peptide: EIEACQV[pY]FTYDPYSE
For B2, the Kd [1] was 940 nM and the Kd [2] was 940 nM.

B3: phosphopeptide corresponding to Tyr361 within the IL-2Rβ (printed 'IL-2R13') cytoplasmic domain (peptide)
peptide: VYFTYDP[pY]SEEDPDEG
For B3, the Kd [1] was 1500 nM and the Kd [2] was 1500 nM.
